# Data published in the DeepSol protein solubility set.
# Test: soluble on expression in E. coli; label from the status in PepcDB or PDB records
row,Sequence,soluble on expression in E. coli
1,MANIDYMMDPGWKYLRQAQDEALKEQAARRFDNKTHAWVPDAAEGFVTAAVAVQEGDNLTFTMPDGTPKKLTRAEVQEINPAKFEKTEDMSNLTFLNEASVLHNLRQRYYSMMIYTYSGLFCVFINPYKMLPIYTDSVASMYVNKRRAEMPPHLFAVSDEAFRNMMSDKENQSMLITGESGAGKTENTKKVIAYFAMIGSGNKDQKSESSLENQVVQANPAIEAFGNGATTRNYNSSRYGKFIRIHFDRKGKLVGGDIEHYLLEKSRVIKQAPGERSYHIFYQIMTQKALRERYGLSDNIRDYKFVSQAEITVPGMNDTEEWQITDGAFNVMGFSEREKDDLYKLCSAIMHIGNSTFKQKPRDEQAEVDDMTSPTAACKLFGINTDQFLNALTRPRIKVGMEWVNKGQNVQQVDWAVGALSKAIYARMFNWLIKRVNKTLQANSDEMVYYIGVLDIAGFEIFDRNSFEQLWINFVNEKLQQFFNHHMFVLEQEEYQREGIEWTFIDFGLDLQSCIELIEKPLGIVSMLDEECIVPKASDMTYVDKLLTQHLGKHPNFQKAKPPKGKQAEAHFSIMHYAGTVRYNAEQWLDKNKDPLNDSAVAILKTSDKEGVLYQLWEEYQTDVDREESEKRGKAQAKKKGKSASFLTVSTMYRESLTSLMTMLHTTHPHFIRCIIPNEKKTSGLIDAPLVLNQLTCNGVLEGIRICRKGFPNRMMFADFRFRYAILAADEASDKDAAKASKAMLRKLSKNNQLNVDTFKVGTTKVFFRAGMLARLEELRDEALSAVILKFQCSLRHYLAQLEYKRRLDREDAYPIIQENIRAWIKLRSWPWYRLFSRLKPMLKGMKSNAEIEALEKKCKELEENHKREEEARKKYADELRAKIDQYEETKAAHERDRMLLDKRNKEIEELNRNLKAESESNYENAKKASELERLREKEKKEWDEKERRMQMEAENEANQHKTQTEKLKDQISTLQTDFEKVSAQRKAQEQMNAELVDEVASFKQKAERAEEQKKKLVEDLDSLDDKLAAEKRANNEHVKHNKKLEGQLKATQTQLTLALKEKHEFDVDCKRRESEIGELKLKAQGDANLISKLQAMLRKCISRIEELEEDLLEERKLRMKAERQFNELRSEYEVLQEQMAEASGQLTAEAHINKVRAEEVSNLRRDLQKRNLNHEAYISDLCNMQYATVNNLRNLSQQSATLESEALRILDHRRALSKQPLPRVYVEDPDSDSD,not soluble
2,MANKGIVPVKISLTEGDFYTLWAPQWREHGAEWQAFLGSGDDLYVFESPAAVLAYIESGARHDLSDHPKWGAFMAGADDRVVPTDRQEYDLIGVPALLAERPSHTNVSAVARCFAITRSLGDVTATIPVQSFFSSHSILMNTERGGNHFTGDSGLGEWTGIGRIVLTSWNNVIDALDSAITVHTDGNAEAISAAAARIDAATAEAEQRRIAEEKKKKADAEKVDPYDATPWAAAGIDPIKISIDGRTVYTLRTYIEAQPVFLGKYGEIFTFNSGKSLVRWLVEHDDHDLARVSTWEDLMVPVNAGELDITVHPDNVYSFNGLTRDINTSVEAVDTAQMARAYELLADAADWAADDSLNSYFLTNPRMQDYISYMIGSTRVSGYTPTPPFTEHSESWAEMEKMLTKRFSKF,not soluble
3,MANPAAAAGPSGGARSFLQAVSTVTEEAPSPLRVVQMEGLAVLKIIKHCEEFAPALVTGQLLGLDVGSVLEVTNCFPFPMREDDEEADADGANYQLEMMRCLREVNVDNNTVGWYQSCLLGSFQTVELIETFMNYQENIRRCVCIVYDPSRSNQGVLALKALKLTDSFMDLYRNNGLTGEKLREKKLSWVDIFEEIPIKVSNSALVSAFMTELEPESPVSQCDFDRLKLSTAPFMERNLEFLIGCMDDLSSEQNKFQYYYRNVSRQQSQQQAWLQKRRQENMARKAAGEEPLPEEDPSNPIFKPIPEPSRLEGYLVTNQISSYCNHINGVAGQNFNRLYLMKALQED,soluble
4,MANRGGEYLYDELWKLCAGPLVDVPQAQERVYYFPQGHMEQLEASTQQVDLNTMKPLFVLPPKILCNVMNVSLQAEKDTDEVYAQITLIPVGTEVDEPMSPDPSPPELQRPKVHSFSKVLTASDTSTHGGFSVLRKHATECLPPLDMTQQTPTQELVAEDVHGYQWKFKHIFRGQPRRHLLTTGWSTFVTSKRLVAGDTFVFLRGENGELRVGVRRANLQQSSMPSSVISSHSMHLGVLATARHATQTKTMFIVYYKPRTSQFIISLNKYLEAMSNKFSVGMRFKMRFEGEDSPERRYSGTVIGVKDCSPHWKDSKWRCLEVHWDEPASISRPNKVSPWEIEPFVNSENVPKSVMLKNKRPRQVSEVSALDVGITASNLWSSVLTQPHEFAQSCITSQWSSPQQCHRDANEDAKKSDWLNNSYSVSNVAKDSTLNDQMVSPVEQKKPETTANYRLFGIDLMSSSLAVPEEKTAPMRPINISKPTMDSHSDPKSEISKVSEEKKQEPAEGSPKEVQSKQSSSTRSRTKVQMQGVPVGRAVDLNALKGYNELIDDIEKLFDIKGELRSRNQWEIVFTDDEGDMMLVGDDPWPEFCNMVKRIFIWSKEEVKKMTPGNQLRMLLREVETTLTTTSKTDNHSN,soluble
5,MANRTEKAAKTVKGTNPQFLVEKIIRQRIYDSMYWKEHCFALTAELVVDKGMDLRYIGGIYAGNIKPTPFLCLALKMLQIQPDKDIVLEFIQQEEFKYIRALGAMYLRLTFDSTEIYKYLEPLYNDFRKLRYMNKMGRFEAIYMDDFIDNLLREDRYCDIQLPRLQKRWALEEVDMLPSYKSLLDGDLVAMSDSDSEEEEVTKKEKPRLTSRRRSRSRDRERDVGDRREVREREKLKERRERGDDEPGPSSSGSGRRDDRDDRRRDRDRSRDRDRRDRRDDDRRDKKKESRRGGADNDEEREIAEANALRAKLGLAPLER,not soluble
6,MAPAEILNGKEISAQIRARLKNQVTQLKEQVPGFTPRLAILQVGNRDDSNLYINVKLKAAEEIGIKATHIKLPRTTTESEVMKYITSLNEDSTVHGFLVQLPLDSENSINTEEVINAIAPEKDVDGLTSINAGRLARGDLNDCFIPCTPKGCLELIKETGVPIAGRHAVVVGRSKIVGAPMHDLLLWNNATVTTCHSKTAHLDEEVNKGDILVVATGQPEMVKGEWIKPGAIVIDCGINYVPDDKKPNGRKVVGDVAYDEAKERASFITPVPGGVGPMTVAMLMQSTVESAKRFLEKFKPGKWMIQ,soluble
7,MAPLLHQVSNYGYGKCVTVRFCDGKTYDAKDGESRAINRDLNVGAVKIYRDSKDEDQAYVLNYFPYNLELNDNRGKNKGLQGYRVLIWKQYGTINLDVFYDEMKIWCKTNDLGIYTSDGELKYYKSVIARHREEGGISVIGFETAEGATTAAAKKEEDENEEASAKVKEANEEESTNA,soluble
8,MAPQKCFLQIKGMTCASCVSNIERNLQKEAGVLSVLVALMAGKAEIKYDPEVIQPLEIAQFIQDLGFEAAVMEDYAGSDGNIELTITGMTCASCVHNIESKLTRTNGITYASVALATSKALVKFDPEIIGPRDIIKIIEEIGFHASLAQ,soluble
9,MAPQNKPYFTYNNEIIGEATQSNPLGNVVRTTISFKSDDKVSDLISTISKAVQFHKNNSASGENVTINENDFINQLKANGVTVKTVQPSNKNEKAYEAIDKVPSTSFNITLSATGDNNQTATIQIPMVPQGASTPTDTTQNPQINWTKGGQAQSSSLNGQVFQVAVGSNFNPLNFTNSNGENIIVSAQQSKNNTTFASIEATSNPVNTSEAGRYYNVTLTATGNTGKKTTATYTVLITSSQKQTLYGNGESTISTYSIYGNNVLSNSTTFKDGDQVYVSDQTKTVGGVSYSQVSPKSKNDANSSNIWVKTSALVKPAGDTNVKTYPVMVDSRAYDKNGNYLGHMYYAYDNIDIVPTVVTINGKTYYKVANKDEYVRVTNITGNQRTLKHNAYIYWSSYRRTPGTGKMYRGQTVTTYGPQMKFKNGKKYYRIEGCRNNNKRYIKAVNFYLEHHHHHH,soluble
10,MAPRKKVNEMVIRKTANLTDKMRKERTVEEFEEVKTAQSKSYESDTSSAESLRQKRTAPSAIRTVQIQKEIVLPYDGNLVSVYEKSSNTRSLDTISEPGDLEEFKKKAEESKYVGPQIVPMKFVTTDVETPVKAIFVSDFDFCQAMHHPPQSSTQSKKVEFSKRFEVEQKFLEEMVADIEKLIVSSGRMDVELKVVKAREENDSPRAKISLVRKIHAEKVDDNLNNQAGLVGFILPDLEMKDHGIPLKITKNQQVPSGQKMFESFKRLFGY,not soluble
